Test [1] concerns the target T1, human CD3 naturally expressed on Jurkat cells (human, UniProt P07766 23-207; P04234 22-171; P09693 23-182).
T1 construct: whole, on cells; also called hCD3
Nature of the test: FACS on Jurkat cells naturally expressing human CD3.

The target in test [2] is T2, human CD3 E&D protein (Acro, Cat. No.: CDD-H52W1) (human, UniProt P07766 23-126; P04234 22-105).
T2 construct: Bought recombinant protein
Kind of test: SPR Biacore 8K, CD3 E&D immobilised on CM5 chip, antibody as analyte, 1:1 fit. On the technique in general: SPR reads the build-up and loss of mass on a sensor chip optically.

The target of test [3] is monkey CD3 E&D protein (Acro, Cat. No.: CDD-C52W4) (monkey, UniProt Q95LI5 22-117; Q95LI8 22-105). Described as above.
monkey CD3 E&D protein (Acro, Cat. No.: CDD-C52W4), sequence (Q95LI5 22-117, chain 1 of 2): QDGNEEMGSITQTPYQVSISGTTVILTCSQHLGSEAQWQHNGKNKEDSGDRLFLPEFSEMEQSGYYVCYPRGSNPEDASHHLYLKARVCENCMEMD
monkey CD3 E&D protein (Acro, Cat. No.: CDD-C52W4), sequence (Q95LI8 22-105, chain 2 of 2): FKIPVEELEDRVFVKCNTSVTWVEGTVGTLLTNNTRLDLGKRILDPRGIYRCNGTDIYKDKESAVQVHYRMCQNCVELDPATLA
Test [4] addresses T3, monkey GPC3 protein (Acro, Cat. No.: GP3-C522a) (monkey).
T3 construct: Bought recombinant protein
Nature of the test: SPR Biacore 8K, anti-human Fc on CM5 chip, GPC3 protein as analyte, 1:1 fit.

Experimental findings from EP4613767A1 (Shanghai Qilu Pharmaceutical Research and Development …, dated 2025) are described below.

T2 sequence (P07766 23-126, chain 1 of 2): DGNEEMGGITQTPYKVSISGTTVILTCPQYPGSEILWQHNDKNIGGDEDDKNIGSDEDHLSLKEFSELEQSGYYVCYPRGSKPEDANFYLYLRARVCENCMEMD
T2 sequence (P04234 22-105, chain 2 of 2): as the sequence (Q95LI8 22-105, chain 2 of 2) above, with V5I, K15N, V20I, T32S, N33D, N34I, A64T, N74S, L83V counted along it
T1 sequence (P07766 23-207, chain 1 of 3): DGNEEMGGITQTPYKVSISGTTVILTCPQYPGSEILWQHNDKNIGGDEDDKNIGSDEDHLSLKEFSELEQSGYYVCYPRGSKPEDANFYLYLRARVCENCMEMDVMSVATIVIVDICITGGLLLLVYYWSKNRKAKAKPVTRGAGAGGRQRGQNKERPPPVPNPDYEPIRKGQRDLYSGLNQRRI
T1 sequence (P04234 22-171, chain 2 of 3): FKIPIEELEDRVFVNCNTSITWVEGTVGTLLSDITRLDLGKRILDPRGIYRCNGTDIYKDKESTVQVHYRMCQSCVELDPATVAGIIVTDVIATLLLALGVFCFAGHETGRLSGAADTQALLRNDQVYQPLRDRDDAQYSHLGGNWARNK
T1 sequence (P09693 23-182, chain 3 of 3): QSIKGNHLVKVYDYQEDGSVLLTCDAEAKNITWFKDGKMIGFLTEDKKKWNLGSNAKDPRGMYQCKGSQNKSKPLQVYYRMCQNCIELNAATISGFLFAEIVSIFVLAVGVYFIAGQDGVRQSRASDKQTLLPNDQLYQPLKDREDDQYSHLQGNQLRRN

B1: bispecific antigen-binding molecule G100 (bispecific antibody)
chain 1: not shown
chain 2: EVKLVESGGGLVQPGGSLKLSCAASGFTFNTYAMNWVRQAPGKGLEWVARIRSKYNNYATYYADSVKDRFTISRDDAKNTLYLQMNNLRTEDTAVYYCVRHGNFGNSYVSWFAYWGQGTLVTVSSGGGGSGGGGSGGGGSAQAVVTQEPSLTVSPGGTVTLTCRSSTGAVTTSNYANWVQQKPGQAPRGLIGGTNKRAPGTPARFSGSLLGGKAALTLSGAQPEDEAEYYCALWYSNLWVFGGGTKLTVLEPKSSDKTHTCPPCPAPEAAGGPSVFLFPPKPKDTLMISRTPEVTCVVVDVSHEDPEVKFNWYVDGVEVHNAKTKPREEQYNSTYRVVSVLTVLHQDWLNGKEYKCKVSNKALPAPIEKTISKAKGQPREPQVCTLPPSRDELTKNQVSLSCAVKGFYPSDIAVEWESNGQPENNYKTTPPVLDSDGSFFLVSKLTVDKSRWQQGNVFSCSVMHEALHNRYTQKSLSLSPGK
notes: Heterodimer of two chains (Format 1): one anti-GPC3 VHH on Knob-Fc, one anti-CD3 scFv on Hole-Fc; also called anti-CD3-GPC3 bispecific antibody; Format 1
By EC50 is commonly meant the concentration at which the effect is half-maximal. As usually defined, the Kd is the equilibrium constant for the complex coming apart. One may read the koff as the first-order rate constant of dissociation. One may read the kon as the second-order rate constant of association. For the molecule B1, the midpoint of the response in test [1], the EC50, lay at 23.9 nM. In test [2], this molecule returned a Kd of 3.49 nM, a koff of 0.00286 s⁻¹ and a kon of 820000 M⁻¹ s⁻¹. In test [3], binding was put at a Kd of 5.66 nM, the koff came to 0.00427 s⁻¹ and the kon stood at 755000 M⁻¹ s⁻¹. In addition, in test [4], binding was characterised by a dissociation constant (Kd) of 9.15 nM, the koff was 0.00276 s⁻¹ and the kon is 302000 M⁻¹ s⁻¹.

B2: bispecific antigen-binding molecule G156 (bispecific antibody)
chain 1: not shown
chain 2: EVKLVESGGGLVQPGGSLKLSCAASGFTFNTYAMNWVRQAPGKGLEWVARIRSKYNNYATYYADSVKDRFTISRDDAKNTLYLQMNNLRTEDTAVYYCVRHGNFGNSYVSWFAYWGQGTLVTVSSGGGGSGGGGSGGGGSAQAVVTQEPSLTVSPGGTVTLTCRSSTGAVTTSNYANWVQQKPGQAPRGLIGGTNKRAPGTPARFSGSLLGGKAALTLSGAQPEDEAEYYCALWYSNLWVFGGGTKLTVLEPKSSDKTHTCPPCPAPEAAGGPSVFLFPPKPKDTLMISRTPEVTCVVVDVSHEDPEVKFNWYVDGVEVHNAKTKPREEQYNSTYRVVSVLTVLHQDWLNGKEYKCKVSNKALPAPIEKTISKAKGQPREPQVCTLPPSRDELTKNQVSLSCAVKGFYPSDIAVEWESNGQPENNYKTTPPVLDSDGSFFLVSKLTVDKSRWQQGNVFSCSVMHEALHNRYTQKSLSLSPGK
notes: Heterodimer of two chains (Format 2): two anti-GPC3 VHH on the Knob-Fc chain, one anti-CD3 scFv on Hole-Fc; also called anti-CD3-GPC3 bispecific antibody; Format 2
Take B2: the EC50 in test [1] turned out to be 27.4 nM. Besides, the Kd is 1.3 nM in test [2], 2.79 nM in test [3] and 9.62 nM in test [4]. The results for the koff in test [2], in test [3] and in test [4] were 0.00193 s⁻¹, 0.00367 s⁻¹ and 0.00275 s⁻¹, respectively. Besides, the kon in test [2] was 1.48e+06 M⁻¹ s⁻¹; in test [3] it was 1.32e+06 M⁻¹ s⁻¹; in test [4] it was 285000 M⁻¹ s⁻¹.
